Changes are numbered by the printed parent chain. Values belong to the binder of their own block, whether it stands above or below them.
Legend:
[1] = target: T1, Human CD137 on Jurkat cells (human, UniProt Q07011 24-255); assay: cell-based or functional assay; design: IC90; Jurkat-CD137 NFkB-luciferase, HT1080-FAP co-culture / EC90; Jurkat-CD137 NFkB-luciferase, HT1080-FAP co-culture: unit not given beside the values
[2] = target: T1, Human CD137 on Jurkat cells; assay: cell-based or functional assay

B1: CD137 #4 (B21.V25) + FAP #2 (A11 VK3/VH3) (bispecific antibody, human IgG1, kappa, L234A L235A)
heavy: not shown
light: DIQMTQSPSSLSASVGDRVTITCRASQSISTAVAWYQQKPGKAPKLLIYAASYLYSGVPSRFSGSGSGTDFTLTISSLQPEDFAVYYCQQHYSNPWTFGQGTKLEIKRTVAAPSVFIFPPSDEQLKSGTASVVCLLNNFYPREAKVQWKVDNALQSGNSQESVTEQDSKDSTYSLSSTLTLSKADYEKHKVYACEVTHQGLSSPVTKSFNRGEC
EC90; Jurkat-CD137 NFkB-luciferase, HT1080-FAP co-culture [1]: 0.65
IC90; Jurkat-CD137 NFkB-luciferase, HT1080-FAP co-culture [1]: 46.9
Total AUC; Jurkat-CD137 NFkB-luciferase, HT1080-FAP co-culture [1]: 3.3e+06
Average EC50; Jurkat-CD137 NFkB-luciferase, HT1080-FAP co-culture [2]: 0.273 nM
Average EC90; Jurkat-CD137 NFkB-luciferase, HT1080-FAP co-culture [2]: 0.738 nM
Average IC50; Jurkat-CD137 NFkB-luciferase, HT1080-FAP co-culture [2]: 888 nM
Average IC90; Jurkat-CD137 NFkB-luciferase, HT1080-FAP co-culture [2]: 84 nM
Ratio IC50/EC50; Jurkat-CD137 NFkB-luciferase, HT1080-FAP co-culture [2]: 3260
Ratio IC90/EC90; Jurkat-CD137 NFkB-luciferase, HT1080-FAP co-culture [2]: 114

B3: CD137 #6 (B21.V37) + FAP #3 (A11 VK7/VH1) (bispecific antibody, human IgG1, kappa, L234A L235A)
heavy: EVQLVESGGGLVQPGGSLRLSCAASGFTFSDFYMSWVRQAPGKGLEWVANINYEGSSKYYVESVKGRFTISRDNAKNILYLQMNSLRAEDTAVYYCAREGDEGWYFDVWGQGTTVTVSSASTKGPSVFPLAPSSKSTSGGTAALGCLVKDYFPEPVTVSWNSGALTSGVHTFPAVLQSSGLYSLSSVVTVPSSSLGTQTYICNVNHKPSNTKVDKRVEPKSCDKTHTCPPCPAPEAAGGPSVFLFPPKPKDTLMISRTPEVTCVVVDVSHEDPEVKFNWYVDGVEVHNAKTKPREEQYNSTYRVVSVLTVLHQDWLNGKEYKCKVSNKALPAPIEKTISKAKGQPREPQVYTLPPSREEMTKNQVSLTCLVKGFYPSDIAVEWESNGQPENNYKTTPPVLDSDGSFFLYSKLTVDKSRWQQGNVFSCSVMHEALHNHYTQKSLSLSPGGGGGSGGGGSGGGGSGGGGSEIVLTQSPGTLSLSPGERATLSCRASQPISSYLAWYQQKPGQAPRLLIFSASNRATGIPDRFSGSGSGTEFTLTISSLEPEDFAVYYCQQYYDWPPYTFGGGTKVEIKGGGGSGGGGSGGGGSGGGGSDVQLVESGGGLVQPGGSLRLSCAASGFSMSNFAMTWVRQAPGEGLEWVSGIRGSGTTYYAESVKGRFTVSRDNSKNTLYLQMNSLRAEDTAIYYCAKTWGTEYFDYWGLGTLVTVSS
light: B1 light with V33L, L54R
EC90; Jurkat-CD137 NFkB-luciferase, HT1080-FAP co-culture [1]: 2.34
IC90; Jurkat-CD137 NFkB-luciferase, HT1080-FAP co-culture [1]: 258
Total AUC; Jurkat-CD137 NFkB-luciferase, HT1080-FAP co-culture [1]: 3.5e+06
Average EC50; Jurkat-CD137 NFkB-luciferase, HT1080-FAP co-culture [2]: 0.141 nM
Average EC90; Jurkat-CD137 NFkB-luciferase, HT1080-FAP co-culture [2]: 1.43 nM
Average IC50; Jurkat-CD137 NFkB-luciferase, HT1080-FAP co-culture [2]: 756 nM
Average IC90; Jurkat-CD137 NFkB-luciferase, HT1080-FAP co-culture [2]: 165 nM
Ratio IC50/EC50; Jurkat-CD137 NFkB-luciferase, HT1080-FAP co-culture [2]: 5370
Ratio IC90/EC90; Jurkat-CD137 NFkB-luciferase, HT1080-FAP co-culture [2]: 115

B4: CD137 #6 (B21.V37) + FAP #5 (C3 VK1/VH4) (bispecific antibody, human IgG1, kappa, L234A L235A)
heavy: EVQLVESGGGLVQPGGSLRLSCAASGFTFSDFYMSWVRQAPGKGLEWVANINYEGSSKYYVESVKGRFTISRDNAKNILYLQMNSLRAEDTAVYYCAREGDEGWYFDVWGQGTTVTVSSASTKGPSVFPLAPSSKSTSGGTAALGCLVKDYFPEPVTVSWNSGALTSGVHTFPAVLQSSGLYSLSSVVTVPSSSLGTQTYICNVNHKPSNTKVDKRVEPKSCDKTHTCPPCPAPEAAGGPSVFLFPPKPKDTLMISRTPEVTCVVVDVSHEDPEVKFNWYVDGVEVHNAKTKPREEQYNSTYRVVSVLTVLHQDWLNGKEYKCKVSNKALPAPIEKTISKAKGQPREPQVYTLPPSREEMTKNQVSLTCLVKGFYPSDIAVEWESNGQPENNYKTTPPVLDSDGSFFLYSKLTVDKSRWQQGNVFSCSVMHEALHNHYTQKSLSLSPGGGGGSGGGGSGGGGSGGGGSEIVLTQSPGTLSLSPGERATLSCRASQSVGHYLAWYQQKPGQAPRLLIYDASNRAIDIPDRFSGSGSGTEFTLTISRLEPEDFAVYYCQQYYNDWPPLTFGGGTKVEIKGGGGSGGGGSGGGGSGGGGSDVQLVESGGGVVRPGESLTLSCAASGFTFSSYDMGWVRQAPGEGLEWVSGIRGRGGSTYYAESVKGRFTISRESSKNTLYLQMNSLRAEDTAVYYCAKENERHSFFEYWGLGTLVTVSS
light: B1 light with V33L, L54R
EC90; Jurkat-CD137 NFkB-luciferase, HT1080-FAP co-culture [1]: 0.47
IC90; Jurkat-CD137 NFkB-luciferase, HT1080-FAP co-culture [1]: 13.8
Total AUC; Jurkat-CD137 NFkB-luciferase, HT1080-FAP co-culture [1]: 3.6e+06
Average EC50; Jurkat-CD137 NFkB-luciferase, HT1080-FAP co-culture [2]: 0.054 nM
Average EC90; Jurkat-CD137 NFkB-luciferase, HT1080-FAP co-culture [2]: 0.315 nM
Average IC50; Jurkat-CD137 NFkB-luciferase, HT1080-FAP co-culture [2]: 191 nM
Average IC90; Jurkat-CD137 NFkB-luciferase, HT1080-FAP co-culture [2]: 13.8 nM
Ratio IC50/EC50; Jurkat-CD137 NFkB-luciferase, HT1080-FAP co-culture [2]: 3520
Ratio IC90/EC90; Jurkat-CD137 NFkB-luciferase, HT1080-FAP co-culture [2]: 43.8

B6: CD137 #3 (B21.V22) + FAP #5 (C3 VK1/VH4) (bispecific antibody, human IgG1, kappa, L234A L235A)
heavy: not shown
light: B1 light with I29V, T31S, V33L, L54R, Y55Q
EC90; Jurkat-CD137 NFkB-luciferase, HT1080-FAP co-culture [1]: 2.18
IC90; Jurkat-CD137 NFkB-luciferase, HT1080-FAP co-culture [1]: 87.8
Total AUC; Jurkat-CD137 NFkB-luciferase, HT1080-FAP co-culture [1]: 2.3e+06

B7: CD137 #5 (B21.V29) + FAP #3 (A11 VK7/VH1) (bispecific antibody, human IgG1, kappa, L234A L235A)
heavy: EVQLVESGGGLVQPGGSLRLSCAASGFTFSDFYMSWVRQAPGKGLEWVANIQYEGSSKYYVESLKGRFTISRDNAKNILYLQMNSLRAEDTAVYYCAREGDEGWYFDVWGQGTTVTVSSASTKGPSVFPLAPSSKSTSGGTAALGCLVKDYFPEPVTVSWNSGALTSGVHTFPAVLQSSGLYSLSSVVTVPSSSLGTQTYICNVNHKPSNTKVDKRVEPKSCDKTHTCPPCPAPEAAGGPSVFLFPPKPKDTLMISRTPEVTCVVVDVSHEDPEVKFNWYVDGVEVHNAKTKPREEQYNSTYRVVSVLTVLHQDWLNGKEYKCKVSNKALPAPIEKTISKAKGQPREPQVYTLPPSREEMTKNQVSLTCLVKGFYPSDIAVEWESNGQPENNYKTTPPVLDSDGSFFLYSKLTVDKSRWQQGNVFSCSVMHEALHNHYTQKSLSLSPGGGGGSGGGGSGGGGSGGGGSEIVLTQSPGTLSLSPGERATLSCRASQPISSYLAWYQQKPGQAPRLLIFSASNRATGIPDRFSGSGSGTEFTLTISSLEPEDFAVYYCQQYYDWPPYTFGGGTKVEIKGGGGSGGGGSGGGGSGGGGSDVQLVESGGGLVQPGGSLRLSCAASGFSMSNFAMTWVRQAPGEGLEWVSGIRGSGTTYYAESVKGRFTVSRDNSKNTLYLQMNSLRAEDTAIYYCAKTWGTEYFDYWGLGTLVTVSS
light: B1 light with V33L, L54R
EC90; Jurkat-CD137 NFkB-luciferase, HT1080-FAP co-culture [1]: 0.52
IC90; Jurkat-CD137 NFkB-luciferase, HT1080-FAP co-culture [1]: 51.9
Total AUC; Jurkat-CD137 NFkB-luciferase, HT1080-FAP co-culture [1]: 2.9e+06
Average EC50; Jurkat-CD137 NFkB-luciferase, HT1080-FAP co-culture [2]: 0.09 nM
Average EC90; Jurkat-CD137 NFkB-luciferase, HT1080-FAP co-culture [2]: 0.671 nM
Average IC50; Jurkat-CD137 NFkB-luciferase, HT1080-FAP co-culture [2]: 347 nM
Average IC90; Jurkat-CD137 NFkB-luciferase, HT1080-FAP co-culture [2]: 52.8 nM
Ratio IC50/EC50; Jurkat-CD137 NFkB-luciferase, HT1080-FAP co-culture [2]: 3840
Ratio IC90/EC90; Jurkat-CD137 NFkB-luciferase, HT1080-FAP co-culture [2]: 78.6

B8: CD137 #4 (B21.V25) + FAP #3 (A11 VK7/VH1) (bispecific antibody, human IgG1, kappa, L234A L235A)
heavy: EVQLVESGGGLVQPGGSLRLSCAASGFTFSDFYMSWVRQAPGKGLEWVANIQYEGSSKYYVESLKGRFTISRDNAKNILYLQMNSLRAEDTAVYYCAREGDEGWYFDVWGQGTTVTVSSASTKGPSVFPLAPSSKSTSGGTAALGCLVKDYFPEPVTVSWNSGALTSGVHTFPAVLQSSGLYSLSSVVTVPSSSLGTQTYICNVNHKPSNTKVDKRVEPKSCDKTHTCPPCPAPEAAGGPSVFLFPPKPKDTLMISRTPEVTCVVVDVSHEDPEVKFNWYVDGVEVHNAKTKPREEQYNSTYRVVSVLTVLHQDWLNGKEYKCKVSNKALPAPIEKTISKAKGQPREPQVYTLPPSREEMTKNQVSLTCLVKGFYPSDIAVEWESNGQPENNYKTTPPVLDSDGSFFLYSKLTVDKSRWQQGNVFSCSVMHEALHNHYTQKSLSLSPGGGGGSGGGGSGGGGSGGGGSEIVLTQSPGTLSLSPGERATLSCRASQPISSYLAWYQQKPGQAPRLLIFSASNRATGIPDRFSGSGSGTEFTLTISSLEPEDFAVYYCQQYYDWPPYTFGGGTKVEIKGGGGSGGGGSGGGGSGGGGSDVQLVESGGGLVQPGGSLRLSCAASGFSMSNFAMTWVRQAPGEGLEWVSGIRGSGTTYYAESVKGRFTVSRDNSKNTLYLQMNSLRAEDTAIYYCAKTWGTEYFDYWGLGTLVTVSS
light: B1 light
EC90; Jurkat-CD137 NFkB-luciferase, HT1080-FAP co-culture [1]: 2.55
IC90; Jurkat-CD137 NFkB-luciferase, HT1080-FAP co-culture [1]: 492
Total AUC; Jurkat-CD137 NFkB-luciferase, HT1080-FAP co-culture [1]: 2.5e+06
Average EC50; Jurkat-CD137 NFkB-luciferase, HT1080-FAP co-culture [2]: 0.248 nM
Average EC90; Jurkat-CD137 NFkB-luciferase, HT1080-FAP co-culture [2]: 1.51 nM
Average IC50; Jurkat-CD137 NFkB-luciferase, HT1080-FAP co-culture [2]: 747 nM
Average IC90; Jurkat-CD137 NFkB-luciferase, HT1080-FAP co-culture [2]: 79.2 nM
Ratio IC50/EC50; Jurkat-CD137 NFkB-luciferase, HT1080-FAP co-culture [2]: 3010
Ratio IC90/EC90; Jurkat-CD137 NFkB-luciferase, HT1080-FAP co-culture [2]: 52.3

B10: CD137 #5 (B21.V29) + FAP #2 (A11 VK3/VH3) (bispecific antibody, human IgG1, kappa, L234A L235A)
heavy: not shown
light: B1 light with V33L, L54R
EC90; Jurkat-CD137 NFkB-luciferase, HT1080-FAP co-culture [1]: 0.78
IC90; Jurkat-CD137 NFkB-luciferase, HT1080-FAP co-culture [1]: 62.8
Total AUC; Jurkat-CD137 NFkB-luciferase, HT1080-FAP co-culture [1]: 2.9e+06
Average EC50; Jurkat-CD137 NFkB-luciferase, HT1080-FAP co-culture [2]: 0.16 nM
Average EC90; Jurkat-CD137 NFkB-luciferase, HT1080-FAP co-culture [2]: 0.883 nM
Average IC50; Jurkat-CD137 NFkB-luciferase, HT1080-FAP co-culture [2]: 444 nM
Average IC90; Jurkat-CD137 NFkB-luciferase, HT1080-FAP co-culture [2]: 86.7 nM
Ratio IC50/EC50; Jurkat-CD137 NFkB-luciferase, HT1080-FAP co-culture [2]: 2780
Ratio IC90/EC90; Jurkat-CD137 NFkB-luciferase, HT1080-FAP co-culture [2]: 98.1

The next lines start with the values.

EC90; Jurkat-CD137 NFkB-luciferase, HT1080-FAP co-culture [1]: 0.8
IC90; Jurkat-CD137 NFkB-luciferase, HT1080-FAP co-culture [1]: 35.7
Total AUC; Jurkat-CD137 NFkB-luciferase, HT1080-FAP co-culture [1]: 3.2e+06
Average EC50; Jurkat-CD137 NFkB-luciferase, HT1080-FAP co-culture [2]: 0.115 nM
Average EC90; Jurkat-CD137 NFkB-luciferase, HT1080-FAP co-culture [2]: 0.644 nM
Average IC50; Jurkat-CD137 NFkB-luciferase, HT1080-FAP co-culture [2]: 319 nM
Average IC90; Jurkat-CD137 NFkB-luciferase, HT1080-FAP co-culture [2]: 69.2 nM
Ratio IC50/EC50; Jurkat-CD137 NFkB-luciferase, HT1080-FAP co-culture [2]: 2790
Ratio IC90/EC90; Jurkat-CD137 NFkB-luciferase, HT1080-FAP co-culture [2]: 107
B2: CD137 #5 (B21.V29) + FAP #5 (C3 VK1/VH4) (bispecific antibody, human IgG1, kappa, L234A L235A)
heavy: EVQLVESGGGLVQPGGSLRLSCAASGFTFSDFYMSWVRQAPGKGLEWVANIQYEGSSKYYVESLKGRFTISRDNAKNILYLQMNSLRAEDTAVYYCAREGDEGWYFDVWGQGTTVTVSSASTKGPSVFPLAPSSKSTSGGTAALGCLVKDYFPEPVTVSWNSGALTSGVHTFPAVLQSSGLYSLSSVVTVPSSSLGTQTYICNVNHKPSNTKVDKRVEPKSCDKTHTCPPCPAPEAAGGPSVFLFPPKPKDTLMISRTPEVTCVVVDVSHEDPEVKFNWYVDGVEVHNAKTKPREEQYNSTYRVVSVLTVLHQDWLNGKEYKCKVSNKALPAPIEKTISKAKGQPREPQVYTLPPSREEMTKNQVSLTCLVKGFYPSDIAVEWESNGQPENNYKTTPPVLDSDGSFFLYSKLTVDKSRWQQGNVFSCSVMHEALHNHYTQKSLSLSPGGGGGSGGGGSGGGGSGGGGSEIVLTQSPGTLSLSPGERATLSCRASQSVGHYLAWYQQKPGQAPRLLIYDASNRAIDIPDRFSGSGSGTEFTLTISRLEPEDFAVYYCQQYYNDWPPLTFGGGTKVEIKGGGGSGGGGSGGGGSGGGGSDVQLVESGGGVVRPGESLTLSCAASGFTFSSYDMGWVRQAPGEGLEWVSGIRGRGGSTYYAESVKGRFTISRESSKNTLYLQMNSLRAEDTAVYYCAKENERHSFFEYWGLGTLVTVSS
light: B1 light with V33L, L54R

EC90; Jurkat-CD137 NFkB-luciferase, HT1080-FAP co-culture [1]: 0.55
IC90; Jurkat-CD137 NFkB-luciferase, HT1080-FAP co-culture [1]: 53.6
Total AUC; Jurkat-CD137 NFkB-luciferase, HT1080-FAP co-culture [1]: 4e+06
Average EC50; Jurkat-CD137 NFkB-luciferase, HT1080-FAP co-culture [2]: 0.153 nM
Average EC90; Jurkat-CD137 NFkB-luciferase, HT1080-FAP co-culture [2]: 1.07 nM
Average IC50; Jurkat-CD137 NFkB-luciferase, HT1080-FAP co-culture [2]: 314 nM
Average IC90; Jurkat-CD137 NFkB-luciferase, HT1080-FAP co-culture [2]: 105 nM
Ratio IC50/EC50; Jurkat-CD137 NFkB-luciferase, HT1080-FAP co-culture [2]: 2060
Ratio IC90/EC90; Jurkat-CD137 NFkB-luciferase, HT1080-FAP co-culture [2]: 98.1
B5: CD137 #6 (B21.V37) + FAP #2 (A11 VK3/VH3) (bispecific antibody, human IgG1, kappa, L234A L235A)
heavy: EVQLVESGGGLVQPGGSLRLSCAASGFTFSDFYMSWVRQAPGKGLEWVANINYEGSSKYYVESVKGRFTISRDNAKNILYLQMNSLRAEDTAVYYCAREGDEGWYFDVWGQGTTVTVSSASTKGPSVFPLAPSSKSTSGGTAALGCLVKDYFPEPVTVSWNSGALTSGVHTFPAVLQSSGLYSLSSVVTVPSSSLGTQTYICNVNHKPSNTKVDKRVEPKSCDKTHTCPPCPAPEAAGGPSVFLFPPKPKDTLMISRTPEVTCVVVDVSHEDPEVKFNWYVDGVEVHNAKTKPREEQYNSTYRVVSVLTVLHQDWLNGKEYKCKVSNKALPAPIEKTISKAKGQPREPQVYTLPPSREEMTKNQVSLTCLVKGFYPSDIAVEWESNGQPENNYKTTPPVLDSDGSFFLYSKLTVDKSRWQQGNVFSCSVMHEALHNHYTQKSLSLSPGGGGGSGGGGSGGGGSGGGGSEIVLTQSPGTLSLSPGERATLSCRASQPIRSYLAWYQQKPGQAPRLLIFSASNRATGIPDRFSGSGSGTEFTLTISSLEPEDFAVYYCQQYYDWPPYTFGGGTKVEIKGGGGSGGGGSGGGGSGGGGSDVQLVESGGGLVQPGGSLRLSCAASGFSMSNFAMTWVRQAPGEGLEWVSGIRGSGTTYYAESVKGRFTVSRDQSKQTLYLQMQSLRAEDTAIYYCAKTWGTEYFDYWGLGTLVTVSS
light: B1 light with V33L, L54R

Average EC50; Jurkat-CD137 NFkB-luciferase, HT1080-FAP co-culture [2]: 0.082 nM
Average EC90; Jurkat-CD137 NFkB-luciferase, HT1080-FAP co-culture [2]: 0.613 nM
Average IC50; Jurkat-CD137 NFkB-luciferase, HT1080-FAP co-culture [2]: 361 nM
Average IC90; Jurkat-CD137 NFkB-luciferase, HT1080-FAP co-culture [2]: 48.4 nM
Ratio IC50/EC50; Jurkat-CD137 NFkB-luciferase, HT1080-FAP co-culture [2]: 4380
Ratio IC90/EC90; Jurkat-CD137 NFkB-luciferase, HT1080-FAP co-culture [2]: 79.1
B9: CD137 #2 (B21.V16) + FAP #3 (A11 VK7/VH1) (bispecific antibody, human IgG1, kappa, L234A L235A)
heavy: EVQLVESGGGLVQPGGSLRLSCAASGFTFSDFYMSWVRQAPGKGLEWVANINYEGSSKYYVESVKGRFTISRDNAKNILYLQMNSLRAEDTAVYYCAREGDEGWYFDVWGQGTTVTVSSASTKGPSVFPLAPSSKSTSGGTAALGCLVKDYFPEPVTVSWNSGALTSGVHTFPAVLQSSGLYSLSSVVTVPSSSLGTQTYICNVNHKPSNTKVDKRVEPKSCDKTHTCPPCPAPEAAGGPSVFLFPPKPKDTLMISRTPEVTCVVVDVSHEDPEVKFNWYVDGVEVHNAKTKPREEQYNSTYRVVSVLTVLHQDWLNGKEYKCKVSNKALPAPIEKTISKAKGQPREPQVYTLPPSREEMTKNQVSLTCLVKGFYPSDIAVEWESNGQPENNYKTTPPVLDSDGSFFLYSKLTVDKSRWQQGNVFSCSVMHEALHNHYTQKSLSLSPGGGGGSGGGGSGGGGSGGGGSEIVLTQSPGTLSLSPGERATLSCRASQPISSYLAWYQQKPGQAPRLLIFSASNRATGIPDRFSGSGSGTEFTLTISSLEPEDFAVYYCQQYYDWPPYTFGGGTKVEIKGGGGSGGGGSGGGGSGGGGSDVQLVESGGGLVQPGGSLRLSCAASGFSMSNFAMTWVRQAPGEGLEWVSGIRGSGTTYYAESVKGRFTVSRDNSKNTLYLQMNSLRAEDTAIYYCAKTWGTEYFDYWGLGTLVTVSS
light: B1 light with R24K, S28D, T31S, A50S, Y53S, L54R, S56T

Source: patent US20250136720A1 (Boehringer Ingelheim, published 2025)
